Measurements: PMC7666581, “Atypical chemoreceptor arrays accommodate high membrane curvature” (Nature Communications, 2020)

Legend:
[1] = target: T1, CheR (classical Td CheR) (Treponema denticola, UniProt Q73PZ7); experiment: isothermal titration calorimetry; format: binding
T1 construct: purified CheR; cloning and tag not described in main text; printed residues R79, Gly152, Val180, Y218
T1 sequence (Q73PZ7 1-271): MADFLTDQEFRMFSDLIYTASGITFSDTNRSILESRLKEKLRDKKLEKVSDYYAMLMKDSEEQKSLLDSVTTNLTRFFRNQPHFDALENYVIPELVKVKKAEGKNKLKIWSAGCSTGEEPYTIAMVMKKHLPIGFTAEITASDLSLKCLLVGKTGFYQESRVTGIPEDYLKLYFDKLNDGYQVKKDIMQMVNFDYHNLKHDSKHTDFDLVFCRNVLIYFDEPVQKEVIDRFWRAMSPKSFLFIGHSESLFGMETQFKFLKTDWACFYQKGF

[2] = target: T2, CheW-CheRlike (CheW-Rlike) (Treponema denticola, UniProt F7IUZ1); experiment: isothermal titration calorimetry; format: binding
T2 construct: gene cheW-1; full-length fusion: N-terminal CheW domain, 28-residue linker, C-terminal CheR-like domain; poly-His tag (pET28a), E. coli BL21(DE3); mainly monomer
T2 sequence (F7IUZ1 1-444): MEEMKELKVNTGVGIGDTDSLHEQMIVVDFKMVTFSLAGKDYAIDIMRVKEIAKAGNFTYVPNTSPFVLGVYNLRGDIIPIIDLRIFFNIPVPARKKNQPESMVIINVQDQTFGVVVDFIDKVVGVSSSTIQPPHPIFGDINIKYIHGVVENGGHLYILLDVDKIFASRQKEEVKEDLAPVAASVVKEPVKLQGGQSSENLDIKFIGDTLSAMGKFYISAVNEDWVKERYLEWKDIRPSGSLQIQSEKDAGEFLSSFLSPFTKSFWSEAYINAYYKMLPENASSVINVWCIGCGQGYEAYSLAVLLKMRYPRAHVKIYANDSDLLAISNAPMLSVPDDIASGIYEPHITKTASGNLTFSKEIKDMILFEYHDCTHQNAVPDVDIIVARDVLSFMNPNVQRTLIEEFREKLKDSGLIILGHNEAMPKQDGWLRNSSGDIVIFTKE

[3] = target: Treponema denticola histidine kinase CheA (Treponema denticola) (UniProt O85747); experiment: SEC-MALS; 25 °C; each sample 10 mg/mL; 50 mM MOPS pH 7.5, 150 mM KCl, 5 mM MgCl2; mixed sample 1:1 molar CheA:CheW-R_(like); CheW-R_(like) pre-incubated 15 min with 5 mM DTT; GE S200 Increase (10/300)
[4] = target: the molecule itself; experiment: as above
[5] = target: the molecule itself; experiment: crystal structure; isolated P3 domain at 32 mg/ml, hanging drop, 0.1 M Imidazole pH 7.0, 25% PEG 400; data cut off at 1.5 Å

C[S+](CC[C@H](N)C(=O)O)C[C@H]1O[C@@H](n2cnc3c(N)ncnc32)[C@H](O)[C@@H]1O (some centres unmarked) [S-adenosylmethionine]
Kd [1]: 20 ± 3.7 µM
Kd [2]: 8.8 ± 1.9 µM

Treponema denticola CheW-CheR_(like) protein (TDE1492) (natural protein)
stoichiometry N (CheW-R subunit per CheA dimer) [3]: 1

B1: Treponema denticola histidine kinase CheA (enzyme, UniProt O85747 1-801, looked up)
chain: MSDYLDINNEELLKDFFSEAEQQVEILESNVLVIEQNPEDRNSIDEIFRAAHTLKGGSATVEMLELSKFTHAMEDLLDEIRSGSVKVTGETVDLLLKSIDIIKLMLDARASGSIYSDDVSGIVNQLRSFIPAKAEKKSSKASAPKVSIPASVSPVSAPKVQASASNLDIKDYFSEYEILELAETIQKGEDLYAVIVKFDESNLMNSVGGIQVFAALKDYGSVLKTVPDFDALYEDEFHETVIYFLSSASDSKILEKAAFIGDVTLSASAERLDIKDKTPESPKPAKAAPAQSAPEASVSEVKVSEKTEEKPVQESKEQPSKPEKKQSQTSPQGSGHSSGSILRVDANRIDYLLNLVSETVITKASLNQSTIEFAELYDKFQNSSTIYKDKTRRLLDKMPEYLEKIQQGYDINSIKQDVLNEYSSLLEVFGDFDSLMKAAVTKFKSSSQNLGRISGELQEGVMKIRMVPISQIFSRFPRVVRDLSRDLNKNVQLVIEGEDTELDKSVVEDLLDPIMHCVRNSLDHGVESPEVRKGLGKPEQGILLLKASNEGNMIVIEVADDGHGIDVEAVKQKAVERGILHPNKSLTDVEAFQLVFAPGFSTSKTISSVSGRGVGLDVVKTHIEKLNGTVMVESEPNVGTRFIIKLPLTLAIIQGLLIRVGDEVYSIPITSVIESHRVKPDEINRIDNYEVFNVRDEVYSLLRLNRLFGITSAETDDDGYNYIVVVGTEEKKVGLMVDSLIGEEAVVIKPLKDQFTNSPGIAGASILGDGSVSLIIDVAQLLELGLKQEMQARERREASIW
notes: Histidine kinase CheA of Treponema denticola ATCC 35405, the only CheA homolog in the genome; amplified from Td genomic DNA; Cloned NdeI/BamHI into pet28a; co-transcribed with TDE1492; also called Td CheA; CheA-F2; source: E. coli BL21-DE3, purified (Nickel-NTA, size exclusion)
stoichiometry N [4]: 2

B2: Treponema denticola CheA P3 domain (dimerization domain) (domain or fragment)
chain: SILRVDANRIDYLLNLVSETVITKASLNQSTIEFAELYDKFQNSSTIYKDKTRRLLDKMPEYLEKIQQGYDINSIKQDVLNEYSSLLEVFGDFDSLMKAAVTKFKSSSQNLGRISGELQEGVMKIRMVP
notes: P3 (dimerization) domain of Treponema denticola CheA, with about 50 additional residues joining the canonical P3 helices; Cloned NdeI/EcoRI into pet28a; The printed residue number Tyr83 probably counts on the deposited construct and not on whole CheA; also called Td P3 domain; isolated P3 domain; source: E. coli BL21-DE3, purified (Nickel-NTA, size exclusion)
binding result [5]: binds
